Measurements taken from the DeepSol protein solubility set.

Test: soluble on expression in E. coli; label from the status in PepcDB or PDB records

Row | Sequence | soluble on expression in E. coli
1 | MSGRGEPTMKTIIVGIDGSHAAITAALWGVDEAISRAVPLRLVSVIKPTHPSPDDYDRDLAHAERSLREAQSAVEAAGKLVKIETDIPRGPAGPVLVEASRDAEMICVGSVGIGRYASSILGSTATELAEKAHCPVAVMRSKVDQPASDINWIVVRMTDAPDNEAVLEYAAREAKLRQAPILALGGRPEELREIPDGEFERRVQDWHHRHPDVRVYPITTHTGIARFLADHDERVQLAVIGGGEAGQLARLVGPSGHPVFRHAECSVLVVRR | not soluble
2 | MSGSSHYPVANWNLDGIVSGLRGARQEWRGPRGRLREESESGVREFPSQESLRDIMRQLFGALFPMRLGPIDLREEVEDFYVGHTIGAALDALLHQVCLELQHLGRDDPQPYGQVLERAVDIVRRFGAELPAVRKALDLDVTAAYQGDPAARSVDEVLLCYPGVTAMIHHRLANVLYRLGAPMLARIVAEIAHSDTGIDIHPGATIGRSFFIDHGTGVVIGETAIIGERVRLYQMVTLGAKRFPPGENGELKKGLPRHPIIEDDVVIYAGATILGRITIGQGSTIGGNVWLTHSVPPNSTVTQAGAINDMPDCGLGGLEHHHHHH | not soluble
3 | MSGSTHTTERGTGRAAEAAPPATDRFACYVYGIVPEDVEVSPGTVGVGEPAGQVTLVRHGEIAALVSPVDVDRPLGRASDLVAHERLLDGAAAEVPVLPFRFGAVLTSPEAVVEELLAPHHDQFAAALRQLEGKAQHVLKARYAERPVLLEILRENAEARRLRDRIRDLPEDATRTERIRLGELITQAIEAKREADTQAVLDRFASCTVAANVRDPSHERDAAHVAFLVEHAKADEFAEAVEELSDEWADRVEVRVLGPMAPYDFVVAEG | not soluble
4 | MSGWPRIYYKLLNLPLSILVKSKSIPAEPAQELGLDTSRPIMYVLPYNSKADLLTLRAQCLAHDLPDPLEPLEIDGALLPRYVFIHGGPRVFTYYTPKEESVKLFHDYLDLHRSNPALDVQMVPVSVMFGRAPGREKGEDNPPLRMLNGVQKFFAISWLGRDSFVRFSPSVSLRRMADEHGTDKIIAQKLARVARMHFARQRLAAVGPRLPARQDLFNKLLASKAIARAVEDEARSKKISHEKAQQNAIALMEEIAANFSYEMIRLTDRILGFTWNRLYQGINVHNAERVRQLAHDGHEIVYVPCHRSHMDYLLLSYVLYHQGLVPPHIAAGINLNFWPAGPIFRRLGAFFIRRTFKGNKLYSTVFREYLGELFSRGYSVEYFVEGGRSRTGRLLDPKTGTLSMTIQAMLRGGTRPITLVPIYIGYEHVMEVGTYAKELRGATKEKESLPQMLKGLSKLRNLGQGYVNFGEPMPLMTYLNQHVPEWRESIDPIEAIRPAWLTPTVNSIAADLMVRINNAGAANAMNLCCTALLASRQRSLTREQLTEQLDCYLDLMRNVPYSTDSTVPAASAGELIAHALQMNKFEVEKDTIGDIIILPREQAVLMTYYRNNIAHMLIMPSLMAAIITQHRRISRDALQQHVEALYPMLKAELFLRWEREELASVIDALASEMQRQGLITLQDDELHINPTHSRTLQLLAAGARETLQRYAITFWLLSANPSINRSTLEKESRTVAQRLSVLHGINAPEFFDKAVFSSLVLTLRDEGYISDTGDAEPAETMKIYQMLADLITSDVRLTIESATQGE | not soluble
5 | MSHFFADHDAPLSMLSVKTEYFPQLTDKEQKYAHFMSKASHAGSRVVMRQVSHESEPIFDLILAIHSKLNGKYPEDDITQKQQTGLYLEYVSQFLSNLGNFKSFGDTKFIPRCEVKFFKQLLELAKINPSSSPLTLSPVDVNHEFTSHHLFSTINELIDIGIYHVEEKAALLGFPSQGYTSAYYLGLPVTPEDMALLKEQLFAELAILPENTRINKVGENSFQIWVASENVKNQITETYPSGQITLSNAVTKVEFIFGDHSREMRLVASYLKEAQKFAANDTQKAMLQEYINHFVTGSSQAHKEAQKLWVKDISPVIETNIGFIETYREPSGIIGEFESLVAIQNKERTAKFSSLVNNAEEFISLLPWSKDYEKPIFNPPDFTSLEVLTFTGSGIPAGINIPNYDDVRLKIGFKNVSLGNILSAAAKSSSKHPPSFISQEDRPIFEKYQSDSFEVQVDIHELLGHGSGKLLTEFTDGFNFDKENPPLGLDGKPVSTYYKVGETWGSKFGQLAGPFEECRAEVIAMFLLTNKKILDIFGFHDVESQDKVIYAGYLQMARAGLLALEYWNPKTGKWGQPHMQARFSIMKTFMKHSTDKNFLKLEMNSTNDDFAIKLDKSLIKTAGHECVKDYLKHLHVYKCSGDVEQGSKYFIDRSTVTPDLASLRDIVLSKRLPRRQFIQSNSYIDDNNKVTLKEYDETPQGMLQSFLDREL | soluble
6 | MSHHHAPVDFEKEASILRNHFNNAEIDLLLLIKKHVMYGAKNPTKWKFIQQSRLIRFKRELKAHISLFKDETRNKIDKLTYRVYLDCVNEYEDEMEARYQTKKEVDIQNDDYLSESDALIQISEDMANYWQKIAPSKYKQVVKETKDSNGVLKYAIATSLINVLGDGIRNVIDQSGRKYRPGAYMEMASRGAFFNVGLNAMKRVLGRYEHELVQVSAHVRSCPRCAPWQGEVLSVNYESNEYKTLQEAENDGLFHPNCHHFLYSYFEGDETDEPIPYDEEEYEAQSKQRYYERGIRDWKTKDILAEGPSKQYTAGKVKQWEEALQEHLNNN | not soluble
7 | MSHLDNGFRSLTLQRFPATDDVNPLQAWEAADEYLLQQLDDTEIRGPVLILNDAFGALSCALAEHKPYSIGDSYISELATRENLRLNGIDESSVKFLDSTADYPQQPGVVLIKVPKTLALLEQQLRALRKVVTPDTRIIAGAKARDIHTSTLELFEKVLGPTTTTLAWKKARLINCTFNEPPLADAPQTVSWKLEGTDWTIHNHANVFSRTGLDIGARFFMQHLPENLEGEIVDLGCGNGVIGLTLLDKNPQAKVVFVDESPMAVASSRLNVETNMPEALDRCEFMINNALSGVEPFRFNAVLCNPPFHQQHALTDNVAWEMFHHARRCLKINGELYIVANRHLDYFHKLKKIFGNCTTIATNNKFVVLKAVKLGRRR | soluble
8 | MSHTVAGGGSGDHSHQVRVKAYYRGDIMITHFEPSISFEGLCNEVRDMCSFDNEQLFTMKWIDEEGDPCTVSSQLELEEAFRLYELNKDSELLIHVFPCVPERPGMPCPGEDKSIYRRGARRWRKLYCANGHTFQAKRFNRRAHCAICTDRIWGLGRQGYKCINCKLLVHKKCHKLVTIECGRHSLPQEPVMPMDQSSMHSDHAQTVIPYNPSSHESLDQVGEEKEAMNTRESGKASSSLGLQDFDLLRVIGRGSYAKVLLVRLKKTDRIYAMKVVKKELVNDDEDIDWVQTEKHVFEQASNHPFLVGLHSCFQTESRLFFVIEYVNGGDLMFHMQRQRKLPEEHARFYSAEISLALNYLHERGIIYRDLKLDNVLLDSEGHIKLTDYGMCKEGLRPGDTTSTFCGTPNYIAPEILRGEDYGFSVDWWALGVLMFEMMAGRSPFDIVGSSDNPDQNTEDYLFQVILEKQIRIPRSMSVKAASVLKSFLNKDPKERLGCLPQTGFADIQGHPFFRNVDWDMMEQKQVVPPFKPNISGEFGLDNFDSQFTNERVQLTPDDDDIVRKIDQSEFEGFEYINPLLMSAEECV | not soluble
9 | MSIESLNAFSMDFFSLKGKTAIVTGGNSGLGQAFAMALAKAGANIFIPSFVKDNGETKEMIEKQGVEVDFMQVGITAEGAPQKIIAACERFGTVDILVNNAGICKLNKVLDFGRADWDPMIDVNLTAAFELSYEAAKIMIPQKSGKIINICSLFSYLGGQWSPAYSATKHALAGFTKAYCDELGQYNIQVNGIAPGYYATDITLATRSNPETNQRVLDHIPANRWGDTQDLMGAAVFLASPASNYVNGHLLVVDGGYLVR | soluble
10 | MSIHICQPVSPKENPNGILNNSRPTTALSGLPELHTVGQGADLEIWTKDSHALLFLLKGEPAVFVGPESGNSQLSGDNVVLLAANLRIRLRAEKGPATLICFYFHPTLHLCLGICPSSGNKKECRRRTEIVHISSLQRETMVNSWLHSVMGYLSEMPTSSEIFELKLRELFCIFRSRYEKPLLDNFLSSFHCQNKGFRAFVFRHHLECRSAEELAAKMNLSLSSFKRHFNQEFSCPPLKWMHEERAKHVYTDLADPSLSLKAIAEKNLFSSVSYLCAFCRKMLGNTPLQLRKAMGQQPK | not soluble
11 | MSIPINFNNLKYLLNDMRNKNRIIEAFPFNYNQRQYAVILTRYKPDEPRPDDYAQAKLEFFNLNSENSIFAYADFYEVHFKSATDFINFFKINVQAGAAKIREIFQSFSNLFADFIPTQTKKDLDIIYKKIVATRLEPNSPNTIYCYDVRRNGKDKAGKPNRRSVENSEKAKILRPELYEKFKADSNYSFFFSDNPSDEKTDAEIIREVTNRQ | not soluble
12 | MSIQHFRVALIPFFAAFCLPVFAHPETLVKVKDAEDQLGARVGYIELDLNSGKILESFRPEERFPMMSTFKVLLCGAVLSRIDAGQEQLGRRIHYSQNDLVEYSPVTEKHLTDGMTVRELCSAAITMSDNTAANLLLTTIGGPKELTAFLHNMGDHVTRLDRWEPELNEAIPNDERDTTMPVAMATTLRKLLTGELLTLASRQQLIDWMEADKVAGPLLRSALPAGWFIADKSGAGERGSRGIIAALGPDGKPSRIVVIYTTGSQATMDERNRQIAEIGASLIKHW | soluble
13 | MSISWSMSRNMFKLAHISDVHLGPLPRLSIQELFSKRITGFVNWHRNRRKHLFASTLDLLLDDIRTHRADHLAVTGDLVNLASGIEIRAAAAWLRALGDPADTSVVPGNHDAYVPGAYEKSMRAWYDYVRGDLAPPQWQEDRRIFPYLRVRDKVAIVGCSTAVATPPFAASGFFSARQARDTVNMLRAAGEAGLFRVVMIHHPPIRGATAFHKRMIGIRRFAAVISTGGAELVLHGHTHLNTLHWLRGQVQPVPVVGIASASQGPGSIKPPAAYNLFSIDGAPGAWELTGERFSLNRTGDAMMPESVDIFAPLEHHHHHH | not soluble
14 | MSITYSAISFSGFSPKSVPFAIHSVTRRQFLNPNTFYRFGFSPSLQGSSIEFSLQLNSRVVLSKERRSLPLVVRNDRPQNEDLPKQYTRREKKPFPVPIVDLRRAARERVKNNKDKPKRPLPPPKNGMVVKSLVPLAYKVYNARIRLINNLHRLMKVVRVNACGWCNEIHVGPYGHPFKSCKGPNTSQRKGLHEWTNSVIEDVIVPLEAYHLFDRLGKRIRHDERFSIPRVPAVVELCIQGGVEIPEFPAKRRRKPIIRIGKSEFVDADETELPDPEPQPPPVPLLTELPVSEITPPSSEEETVSLAEETLQAWEEMRAGAKKLMRMYRVRVCGYCPEVHVGPTGHKAQNCGAFKHQQRNGQHGWQSAVLDDLIPPRYVWHVPDVNGPPMQRELRSFYGQAPAVVEICAQAGAVVPEHYRATMRLEVGIPSSVKEAEMVV | soluble
15 | MSKADENDANLTENGVHKSRSDSEINSHTSSIHKSSSQHRRLFIDDISTIEASAGDRVWATCSGAGDATELITIHFLGDQFEESAIDVVRKHSLVMFTVPSLKVDSELEVELRFSTSNDNVTTISFKYLPRKIQRSHTQEISLFDNLLEFATNGDTISLLQPFVAQISKQDIEGNTVFHVAAKNGQSFSLKLLLSVIPPDIKNEVINVQNTHGLTALHVAIRTGDPDAVHYLMNHGAKIDISDNHGSTALHYLGDAYNESIFKEILEPSRGQRFDVNQLNSEGFAPIHVAVRRLKLSLIEMLIEAGALIDFLDTEKKRNALMHAIEMNDFETIQLLVERGSGTNIEDESGETALSLAVKNVNYPVIGLLLDNGADPNRQNSKGICLADSEDSVIQNIINGDRPELPKKEAFGVPNDLAISRSPLFGRSHPDQAPGEESGRHRVVKRSREEILNDAQTLLAETDSMAPRVSRISTSESEDEQQPGPSTSSGTRRRRSEWDRNPKLSDSVCNLDYLTRIRVAKIFDDQCKWQRLAQQLNCDHMVELISICSSGDDSSPTMILLDQFEQLEDSSISRLRDAMNQMAEDDAVKLIDSRYVY | not soluble
16 | MSKDLVHPSLIRAGIVELEMAEETTDLINRTIESNQAHLQGEPLYVDSLPEDMSRLRIEDKSRRTKTEEEERDEGSSEEDNYLSEGQDPLIPFQNFLDEIGARAVKRLKTGEGFFRVWSALSDDIKGYVSTNIMTSGERDTKSIQIQTEPTASVSSGNESRHDSESMHDPNDKKDHTPDHDVVPDIESSTDKGEIRDIEGEVAHQVAESFSKKYKFPSRSSGIFLWNFEQLKMNLDDIVKAAMNVPGVERIAEKGGKLPLRCILGFVALDSSKRFRLLADNDKVARLIQEDINSYMARLEEAE | soluble
